IntAct's records for PubMed 19737519

Key:
nle1_yeast RSA4 [1] = molecular target: nle1_yeast RSA4 (UniProt P25382)
nle1_yeast RSA4 [2] = molecular target: nle1_yeast RSA4 (UniProt P25382); remark: listed apart in the source

Chain of UniProt P25382 (P25382 whole entry): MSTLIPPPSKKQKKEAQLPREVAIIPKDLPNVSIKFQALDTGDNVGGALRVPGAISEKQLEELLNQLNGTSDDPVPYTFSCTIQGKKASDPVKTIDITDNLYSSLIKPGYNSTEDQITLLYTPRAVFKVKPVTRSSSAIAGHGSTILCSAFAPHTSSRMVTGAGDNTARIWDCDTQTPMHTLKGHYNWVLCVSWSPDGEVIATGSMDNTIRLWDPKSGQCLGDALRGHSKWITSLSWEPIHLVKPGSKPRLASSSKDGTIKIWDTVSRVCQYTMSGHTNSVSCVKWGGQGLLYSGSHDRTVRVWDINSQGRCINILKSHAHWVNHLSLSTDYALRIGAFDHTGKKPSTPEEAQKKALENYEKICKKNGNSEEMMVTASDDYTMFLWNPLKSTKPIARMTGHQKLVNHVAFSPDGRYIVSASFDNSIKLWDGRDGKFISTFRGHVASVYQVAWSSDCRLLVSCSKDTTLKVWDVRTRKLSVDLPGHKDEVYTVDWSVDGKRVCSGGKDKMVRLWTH

Substance | effect of a mutation on the interaction (nle1_yeast RSA4 [1]) | effect of a mutation on the interaction (nle1_yeast RSA4 [2])
Midasin (Saccharomyces cerevisiae), Q12019 S4712A;S4714A | decreasing interaction | disrupting interaction
Midasin (Saccharomyces cerevisiae), Q12019 S4712T | – | decreasing interaction
